B1: DM 16-mer (dsDNA)
DNA 1: CGTAGCCTGGTCGATC
DNA 2: GATCGACCAGGCTACG
modifications: 5-methylcytosine at strand 1 position 7 and strand 2 position 8
B2: T/2 25-mer (dsDNA)
DNA 1: CGCACGACTTCCTGGAAGAGCACGC
DNA 2: GCGTGCTCTTCCAGGAAGTCGTGCG
modifications: strand 2 position 13 is 2-aminopurine (written A) replacing central A
B3: HM(A) 16-mer (dsDNA)
DNA 1: CGTAGCCTGGTCGATC
DNA 2: GATCGACCAGGCTACG
modifications: 5-methylcytosine at strand 2 position 8 (second C of CCAGG)
B4: HM(T) 16-mer (dsDNA)
DNA 1: CGTAGCCTGGTCGATC
DNA 2: GATCGACCAGGCTACG
modifications: 5-methylcytosine at strand 1 position 7 (second C of CCTGG)

Columns and labels:
[1] = molecular target: T1, EcoRII-C (UniProt P14633 183-404); experiment: EMSA
T1 sequence: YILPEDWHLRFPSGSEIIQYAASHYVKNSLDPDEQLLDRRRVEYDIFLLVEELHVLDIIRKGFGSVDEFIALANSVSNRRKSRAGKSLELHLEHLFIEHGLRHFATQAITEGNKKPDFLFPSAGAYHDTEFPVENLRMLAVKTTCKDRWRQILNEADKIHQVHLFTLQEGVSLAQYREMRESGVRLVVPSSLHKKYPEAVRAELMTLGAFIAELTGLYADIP

[2] = molecular target: T2, EcoRII-N (His-tagged) (UniProt P14633 1-180); experiment: EMSA
T2 sequence: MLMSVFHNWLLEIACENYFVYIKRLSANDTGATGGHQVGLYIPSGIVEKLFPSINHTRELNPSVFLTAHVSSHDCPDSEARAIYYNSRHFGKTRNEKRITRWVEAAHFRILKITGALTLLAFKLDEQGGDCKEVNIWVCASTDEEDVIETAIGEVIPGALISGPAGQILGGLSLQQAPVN

Row | Binder | binding result [1] | binding result [2]
1 | B1 | no binding | 
2 | B2 |  | no binding
3 | B3 |  | no binding
4 | B4 |  | no binding
